This passage reports binding signal (fraction of canonical control) and activity results from patent publication US20150307561.

Series [1] concerns TALE tetramer library CCTG (repeats 5-8 varied) (synthetic (Xanthomonas TALE scaffold)). The series is described as follows: ELISA. Particulars: mean of 90 library clones, SE 0.03. A general note: In an ELISA, binding on a coated surface is turned into a signal by an enzyme label.
Series [2] deals with TALEN L (L538), canonical RVDs (synthetic (Xanthomonas TALE scaffold)). The experiment in a line: cell_activity. Particulars: K562, L/R, cold shock.
For series [3], the system named is TALEN L 102002 (synthetic (Xanthomonas TALE scaffold)). The series is described as follows: cell_activity. Particulars: K562, partner TALEN R.
Series [4] deals with TALEN L 102006 (synthetic (Xanthomonas TALE scaffold)). The series is described as follows: cell_activity. Particulars: K562, partner TALEN R.
Series [5] concerns TALEN L 102010 (synthetic (Xanthomonas TALE scaffold)). The series is described as follows: cell_activity. The following applies: K562, partner TALEN R.
Series [6] deals with TALEN L 102035 (synthetic (Xanthomonas TALE scaffold)). The series is described as follows: cell_activity. The following applies: K562, partner TALEN R.
In series [7] the test system is TALEN L 102038 (synthetic (Xanthomonas TALE scaffold)). The experiment in a line: cell_activity. The following applies: K562, partner TALEN R.
Series [8] relates to TALEN L 102041 (synthetic (Xanthomonas TALE scaffold)). The series is described as follows: cell_activity. The following applies: K562, partner TALEN R.
Series [9] relates to TALEN L 102043 (synthetic (Xanthomonas TALE scaffold)). The series is described as follows: cell_activity. The following applies: K562, partner TALEN R.
In series [10] the test system is TALEN L 102046 (synthetic (Xanthomonas TALE scaffold)). The experiment in a line: cell_activity. Particulars: K562, partner TALEN R; 30.1 in Table 4.
The test system of series [11] is TALEN L 102049 (synthetic (Xanthomonas TALE scaffold)). The series is described as follows: cell_activity. The following applies: K562, partner TALEN R.
The test system of series [12] is TALEN L 102052 (synthetic (Xanthomonas TALE scaffold)). The series is described as follows: cell_activity. The following applies: K562, partner TALEN R.
Series [13] deals with TALEN L 102056 (synthetic (Xanthomonas TALE scaffold)). The series is described as follows: cell_activity. The following applies: K562, partner TALEN R.
The subject of series [14] is TALEN L 102066 (synthetic (Xanthomonas TALE scaffold)). The experiment in a line: cell_activity. The following applies: K562, partner TALEN R.
The subject of series [15] is TALEN L 102072 (synthetic (Xanthomonas TALE scaffold)). The experiment in a line: cell_activity. The following applies: K562, partner TALEN R.
Series [16] concerns TALEN L 102075 (synthetic (Xanthomonas TALE scaffold)). The series is described as follows: cell_activity. Particulars: K562, partner TALEN R.
For series [17], the system named is TALEN L 102076 (synthetic (Xanthomonas TALE scaffold)). The series is described as follows: cell_activity. The following applies: K562, partner TALEN R.
Series [18] concerns TALEN L 102077 (synthetic (Xanthomonas TALE scaffold)). The experiment in a line: cell_activity. Particulars: K562, partner TALEN R.
For series [19], the system named is TALEN L 102078 (synthetic (Xanthomonas TALE scaffold)). The experiment in a line: cell_activity. The following applies: K562, partner TALEN R.
Series [20] concerns TALEN L 102083 (synthetic (Xanthomonas TALE scaffold)). The series is described as follows: cell_activity. The following applies: K562, partner TALEN R.
Series [21] has as its system TALEN L 102085 (synthetic (Xanthomonas TALE scaffold)). The series is described as follows: cell_activity. Particulars: K562, partner TALEN R.
For series [22], the system named is TALEN L 102202 (synthetic (Xanthomonas TALE scaffold)). The series is described as follows: cell_activity. The following applies: K562, partner TALEN R.
The test system of series [23] is TALEN L 102203 (synthetic (Xanthomonas TALE scaffold)). The experiment in a line: cell_activity. The following applies: K562, partner TALEN R.
Series [24] relates to TALEN L 102204 (synthetic (Xanthomonas TALE scaffold)). The series is described as follows: cell_activity. The following applies: K562, partner TALEN R.
The subject of series [25] is TALEN L 102205 (synthetic (Xanthomonas TALE scaffold)). The series is described as follows: cell_activity. The following applies: K562, partner TALEN R.
Series [26] has as its system TALEN L 102206 (synthetic (Xanthomonas TALE scaffold)). The series is described as follows: cell_activity. The following applies: K562, partner TALEN R.
Series [27] concerns TALEN L 102208 (synthetic (Xanthomonas TALE scaffold)). The experiment in a line: cell_activity. The following applies: K562, partner TALEN R.
For series [28], the system named is TALEN L 102209 (synthetic (Xanthomonas TALE scaffold)). The experiment in a line: cell_activity. Particulars: K562, partner TALEN R.
For series [29], the system named is TALEN L 102210 (synthetic (Xanthomonas TALE scaffold)). The experiment in a line: cell_activity. The following applies: K562, partner TALEN R.
Series [30] has as its system TALEN L 102211 (synthetic (Xanthomonas TALE scaffold)). The experiment in a line: cell_activity. Particulars: K562, partner TALEN R.
Series [31] deals with TALEN L 102213 (synthetic (Xanthomonas TALE scaffold)). The series is described as follows: cell_activity. Particulars: K562, partner TALEN R.
Series [32] relates to TALEN L 102214 (synthetic (Xanthomonas TALE scaffold)). The series is described as follows: cell_activity. The following applies: K562, partner TALEN R.
The test system of series [33] is TALEN L 102215 (synthetic (Xanthomonas TALE scaffold)). The series is described as follows: cell_activity. The following applies: K562, partner TALEN R.
Series [34] relates to TALEN L 102216 (synthetic (Xanthomonas TALE scaffold)). The experiment in a line: cell_activity. The following applies: K562, partner TALEN R.
Series [35] has as its system TALEN L 102217 (synthetic (Xanthomonas TALE scaffold)). The series is described as follows: cell_activity. The following applies: K562, partner TALEN R.
Series [36] deals with TALEN L 102219 (synthetic (Xanthomonas TALE scaffold)). The series is described as follows: cell_activity. The following applies: K562, partner TALEN R.
For series [37], the system named is TALEN L 102224 (synthetic (Xanthomonas TALE scaffold)). The series is described as follows: cell_activity. Particulars: K562, partner TALEN R.
In series [38] the test system is TALEN L*, non-canonical RVDs (synthetic (Xanthomonas TALE scaffold)). The series is described as follows: cell_activity. The following applies: K562, L*/R*, cold shock; 58.66 with R.

On to “CATAGTCCCCTTGACCCTGTCCTCGGTGTAGTTTTCACAGTCAGTCCACACGTC (double strand) [CCTG target]”, for which, in series [1], the binding signal (fraction of canonical control) was 0.2.
As for “TTCATTACACCTGCAGCT (double strand) [TALEN L binding site (CCR5)]”, the activity in series [2] worked out at 50.6 % indels; in [3], 20.3 % indels; in series [4], 1.3 % indels; in series [5], 17.3 % indels; in series [6], 16.8 % indels; in series [7], 17.2 % indels. The activity was found to be 4.2 % indels in [8]; 22.4 % indels in series [9]; 33.6 % indels in series [10]; 25.9 % indels in series [11]; 30.1 % indels in series [12]; 30.9 % indels in series [13]. The activity in series [14] worked out at 22.9 % indels; in series [15], 24.5 % indels; in series [16], 10.7 % indels; in series [17], 21.6 % indels; in series [18], 23.8 % indels; in series [19], 25.1 % indels. The activity in series [20] was 27 % indels; in series [21] it was 26.1 % indels; in series [22], 32.4 % indels; in series [23], 16.6 % indels; in [24], 36.6 % indels; in series [25], 40.2 % indels. In addition, the activity in series [26] was 23.5 % indels; in [27] it was 27.9 % indels; in series [28], 28.4 % indels; in series [29], 33.6 % indels; in series [30], 23.2 % indels; in series [31] it was 34.1 % indels. The activity in series [32] worked out at 31.2 % indels; in series [33], 29 % indels; in [34] it was 35.4 % indels; in series [35] it was 34.5 % indels; in series [36], 37.8 % indels; in series [37], 38.7 % indels. For the same sequence, in [38], the activity came out at 65.2 % indels.
